Measurements as given in the RNAGym collection of RNA variant scans (doi:10.7554/elife.80360).

B1: Hairpin Ribozyme (parent)
chain: GUCCUCUUUCACGUGCGCGUGAAAGAGAGAAGUGAACCAGAGAAACACACGUUGUGGUAUAUUACCUGGUA

Variants of: B1
Assay: self-cleavage, relative activity (ratio to wild type); higher = more cleavage; co-transcriptional

Variant	self-cleavage
CUCCUCUUUCACGUGCGCGUGAAAGAGAGAACUGAACCAGAGAAACACACGUUGUGGUAUAUUACCUGGUA [G1C G32C]	0.116
CUCCUCUUUCACGUGCGCGUGAAAGAGAGAAGUGAUCCAGAGAAACACACGUUGUGGUAUAUUACCUGGUA [G1C A36U]	0.338
CUCCUCUUUCACGUGCGCGUGAAAGAGAGAAGUGAACCAGAGAAACACACGUUGUGGUAUAUUACCUGGUU [G1C A71U]	0.153
CUCCUCUUUCACGUGCGCGUGAAAGAGAGAAGUGAACCAGAGAAACACACGUUGUGGUAUAUUACCUGGUC [G1C A71C]	0.328
AUCCUCUUUCACGUGCGCGUGAAAGAGAGAAGUGAACCAGAGAAACACACGUUGUGGUAUAAUACCUGGUA [G1A U62A]	0.192
CUCCUCUUUCACGUGCGCGUGAAAGAGAGAAGUGAAACAGAGAAACACACGUUGUGGUAUAUUACCUGGUA [G1C C37A]	0.0534
CUCCUCUUUCACGUGCGCGUGAAAGAGAGAAGUGAAGCAGAGAAACACACGUUGUGGUAUAUUACCUGGUA [G1C C37G]	0.0832
CUCCUCUUUCACGUGCGCGUGAAAGAGAGAAGUGAACCAGAGAAACACACGUUGUGGUAUAUUGCCUGGUA [G1C A64G]	0.143
CUCCUCUUUCACGUGCGCGUGAAAGAGAGAAGUGAACCAGAGAAACACACGUUGUGGUAUAUUUCCUGGUA [G1C A64U]	0.107
CUCCUCUUUCACGUGCGCGUGAAAGAGAGAAGUGAACCAGAGAAACACACGUUGUGGUAUCUUACCUGGUA [G1C A61C]	0.249
CUCCUCUUUCACGUGCGCGUGAAAGAGAGAAGUGAACCAGAGAAACACACGUUGUGGUAUUUUACCUGGUA [G1C A61U]	0.126
CUCCUCUUUCACGUGCGCGUGAAAGAGAGAAGUGAACCAGAGAAACACACGUUGUGGUAUGUUACCUGGUA [G1C A61G]	0.202
CUUCUCUUUCACGUGCGCGUGAAAGAGAGAAGUGAACCAGAGAAACACACGUUGUGGUAUAUUACCUGGUA [G1C C3U]	0.18
CUCCUCUUUCACGUGCGCGUGAAAGAGAGAAGUGAACCAGAGAAACACAGGUUGUGGUAUAUUACCUGGUA [G1C C50G]	0.171
AUCCUCUUUCACGUGCGCGUGAAAGAGAGAAGUGAACCAGAGAAACACACGUUGUGGUAAAUUACCUGGUA [G1A U60A]	0.188
CUCCUCUUUCACGUGCGCGUGAAAGAGAGAAGUGAACCAGAGAAACACACGUUAUGGUAUAUUACCUGGUA [G1C G54A]	0.141
CUCCUCUUUCACGUGCGCGUGUAAGAGAGAAGUGAACCAGAGAAACACACGUUGUGGUAUAUUACCUGGUA [G1C A22U]	0.103
CUCCUCUUUCACGUGCGCGUGAAAGAGAGAAGAGAACCAGAGAAACACACGUUGUGGUAUAUUACCUGGUA [G1C U33A]	0.0439
CUCCUAUUUCACGUGCGCGUGAAAGAGAGAAGUGAACCAGAGAAACACACGUUGUGGUAUAUUACCUGGUA [G1C C6A]	0.245
CUCCUCUUUCACGUGCGCGUGAACGAGAGAAGUGAACCAGAGAAACACACGUUGUGGUAUAUUACCUGGUA [G1C A24C]	0.32
CUCCUCUUUCAUGUGCGCGUGAAAGAGAGAAGUGAACCAGAGAAACACACGUUGUGGUAUAUUACCUGGUA [G1C C12U]	0.213
CUCCUCUUUCAAGUGCGCGUGAAAGAGAGAAGUGAACCAGAGAAACACACGUUGUGGUAUAUUACCUGGUA [G1C C12A]	0.215
CUCCUCUUUCAGGUGCGCGUGAAAGAGAGAAGUGAACCAGAGAAACACACGUUGUGGUAUAUUACCUGGUA [G1C C12G]	0.188
CUCCUCUUUCACGUGCGCGUGAAAGAGAGCAGUGAACCAGAGAAACACACGUUGUGGUAUAUUACCUGGUA [G1C A30C]	0.207
CUCCUCUUUCACGUGCGCGUGAAAGAUAGAAGUGAACCAGAGAAACACACGUUGUGGUAUAUUACCUGGUA [G1C G27U]	0.142
CUCCUCUUUCACGUGCGCGUGAAAGAGAAAAGUGAACCAGAGAAACACACGUUGUGGUAUAUUACCUGGUA [G1C G29A]	0.174

Variant	self-cleavage
CUCCUCUUUCACGGGCGCGUGAAAGAGAGAAGUGAACCAGAGAAACACACGUUGUGGUAUAUUACCUGGUA [G1C U14G]	0.101
AUCCUCUUUCACGUGCGCGUGAAAGAGAGAAGUGAACCAGAGAAACACACGUUGUGGUAUAUUACCUGGCA [G1A U70C]	0.154
AUCCUCUUUCACGUGCGCGUGAAAGAGAGAAGUGAACCAGAGAAACACACGUUGUGGUAUAUUACCUGGAA [G1A U70A]	0.198
CUCCUCUCUCACGUGCGCGUGAAAGAGAGAAGUGAACCAGAGAAACACACGUUGUGGUAUAUUACCUGGUA [G1C U8C]	0.172
CUCCUCUUUCACGUGCGCGUGAAAGAGAGAAGUGAACCAGAGAAACACACGUUGUGGUAUAUUACCAGGUA [G1C U67A]	0.109
CUCCUCUUUCACGUGCUCGUGAAAGAGAGAAGUGAACCAGAGAAACACACGUUGUGGUAUAUUACCUGGUA [G1C G17U]	0.204
CUCCUCUUUCACGUGCGCGUGAAAGAGAGAAGUGAACCAGAGGAACACACGUUGUGGUAUAUUACCUGGUA [G1C A43G]	0.113
CUCCUCUUUCACGUGCGCAUGAAAGAGAGAAGUGAACCAGAGAAACACACGUUGUGGUAUAUUACCUGGUA [G1C G19A]	0.197
UUCCUCUUUCACGUGCGCGUGUAAGAGAGAAGUGAACCAGAGAAACACACGUUGUGGUAUAUUACCUGGUA [G1U A22U]	0.119
UUCCUCUUUCACGUGCGCGUGGAAGAGAGAAGUGAACCAGAGAAACACACGUUGUGGUAUAUUACCUGGUA [G1U A22G]	0.101
CUCCCCUUUCACGUGCGCGUGAAAGAGAGAAGUGAACCAGAGAAACACACGUUGUGGUAUAUUACCUGGUA [G1C U5C]	0.361
CUCCUCUUUCACGUGCGCGUGAAAGAGAGAAGUAAACCAGAGAAACACACGUUGUGGUAUAUUACCUGGUA [G1C G34A]	0.162
CUCCUCUUUCACGUGCGCGUGAAAGAGAGAAGUCAACCAGAGAAACACACGUUGUGGUAUAUUACCUGGUA [G1C G34C]	0.211
CUCCUCUUUCACGUGCGCGUGAAAGAGAGAAGUGAACCAGAGAGACACACGUUGUGGUAUAUUACCUGGUA [G1C A44G]	0.0352
UUCCUCUUUCACGUGCGCGUGAUAGAGAGAAGUGAACCAGAGAAACACACGUUGUGGUAUAUUACCUGGUA [G1U A23U]	0.11
CUCCUCUUUCACGUGCGCGUGAAAGAGAGAAGUGAACCAGAGAAACACACGUUGUGGUAUAUUACCUGCUA [G1C G69C]	0.303
CUCCUCUUUCACGUGCGCGUGAAAGAGAGAAGUGAACCAGAGAAACACACGUUGUGGUAUAUUACAUGGUA [G1C C66A]	0.351
CUCCUCUUUCACGUGCGCGUGAAAGAGAGAAGUGAACCAGAGAAACACACGUUGUGGUAUAUUACUUGGUA [G1C C66U]	0.12
CCCCUCUUUCACGUGCGCGUGAAAGAGAGAAGUGAACCAGAGAAACACACGUUGUGGUAUAUUACCUGGUA [G1C U2C]	0.233
CUCCUCUUUCACGUGUGCGUGAAAGAGAGAAGUGAACCAGAGAAACACACGUUGUGGUAUAUUACCUGGUA [G1C C16U]	0.198
CUCCUCUUACACGUGCGCGUGAAAGAGAGAAGUGAACCAGAGAAACACACGUUGUGGUAUAUUACCUGGUA [G1C U9A]	0.117
CUCCUCUUGCACGUGCGCGUGAAAGAGAGAAGUGAACCAGAGAAACACACGUUGUGGUAUAUUACCUGGUA [G1C U9G]	0.125
CUCCUCUUUCACGUGCGCGUGAAAGAGAGAAGUGAACCAGAGAAACAAACGUUGUGGUAUAUUACCUGGUA [G1C C48A]	0.129
CUCCUCUUUCACGUGCGCGUGAAAGAGAGAAGUGAACCAGAGAAACACACGUUGUGGUAUAUUAUCUGGUA [G1C C65U]	0.188
CUCCUCUUUCACGUGCGCGGGAAAGAGAGAAGUGAACCAGAGAAACACACGUUGUGGUAUAUUACCUGGUA [G1C U20G]	0.0342
CUCCUCUUUCACGUGCGCGUGAAAGAGAGAAGUGAACCAGAGAAACACACGUUGUGGAAUAUUACCUGGUA [G1C U58A]	0.131

Variant	self-cleavage
AUCCUCUUUCACGUGCGCGUGAAAGAGAGAAGUGAACCAGAGAAACACACGUUGCGGUAUAUUACCUGGUA [G1A U55C]	0.243
CUCCUCUUUCACGUGCGCGUGAAAGAGAGAAGUGAACCAGAGAAACACACGUUGUGGUAUAUUACCUGGAA [G1C U70A]	0.208
CUCCUCUUUCACGUGCGCGUGAAAGAGAGAAGUGAACCAGAGAAACACACGUUGUGGUAUAUUACCUGGCA [G1C U70C]	0.155
CUCCUCUUUCACGUGCGCGUGAAAGAGAGAAGUGAACCAGAGAAACACACGUUGUGGUAUAUUACCUGGGA [G1C U70G]	0.166
CUCCUCUUUCACGUGCGCGUGAAAGAGAGAAGUGUACCAGAGAAACACACGUUGUGGUAUAUUACCUGGUA [G1C A35U]	0.254
CUCCUCUUUCACGUGCGCGUGAAAGAGAGAUGUGAACCAGAGAAACACACGUUGUGGUAUAUUACCUGGUA [G1C A31U]	0.163
CUCCUCUUUCACGUGCGCGUGAAAGAGAGAGGUGAACCAGAGAAACACACGUUGUGGUAUAUUACCUGGUA [G1C A31G]	0.187
CUCCUCUUUCACGUGCGCGUGAAAGAGAGAAGUGAACCAGAGAAACACACGUUGUGGUAUAUUACCUUGUA [G1C G68U]	0.209
CUCCUCUUUCACGUGCGCGUGAAAGAGAGAAGUGAACCAGAGAAACACACGUUGUGGUAUAUUACCUCGUA [G1C G68C]	0.379
CUCCUCUUUCACGUGCGCGUGAAAUAGAGAAGUGAACCAGAGAAACACACGUUGUGGUAUAUUACCUGGUA [G1C G25U]	0.211
CUCCUCUUUAACGUGCGCGUGAAAGAGAGAAGUGAACCAGAGAAACACACGUUGUGGUAUAUUACCUGGUA [G1C C10A]	0.102
CUCCUCUUUCACGUGCGCGUGAGAGAGAGAAGUGAACCAGAGAAACACACGUUGUGGUAUAUUACCUGGUA [G1C A23G]	0.132
CUCCUCUUUCACGUGCGCGUGAAAGAGAGAAGUGAACCAGAGAAACACACGUUGUGUUAUAUUACCUGGUA [G1C G57U]	0.0983
CUCCUCUUUCACGUGCGCGUGAAAGAGAGAAGUGAACCAGAGAAACACACGUUGUGGUACAUUACCUGGUA [G1C U60C]	0.314
CUCCUCUUUCACGUGCGCGUGAAAGAGAGAAGUGAACCAGAGAAACACACGGUGUGGUAUAUUACCUGGUA [G1C U52G]	0.206
CUCCUCUUUCACGUGCGCGUGAAAGUGAGAAGUGAACCAGAGAAACACACGUUGUGGUAUAUUACCUGGUA [G1C A26U]	0.18
CUCGUCUUUCACGUGCGCGUGAAAGAGAGAAGUGAACCAGAGAAACACACGUUGUGGUAUAUUACCUGGUA [G1C C4G]	0.301
AUCCUCUUUCACGUGCGCGUGAAAGAGAGAAGUGAACCAGAGAAACACACGUUGUGGAAUAUUACCUGGUA [G1A U58A]	0.186
AUCCUCUUUCACGUGCGCGUGAAAGAGAGAAGUGAACCAGAGAAACACACGUUGUGGGAUAUUACCUGGUA [G1A U58G]	0.256
CUCCUCUUUCGCGUGCGCGUGAAAGAGAGAAGUGAACCAGAGAAACACACGUUGUGGUAUAUUACCUGGUA [G1C A11G]	0.194
CUCCUCUUUCCCGUGCGCGUGAAAGAGAGAAGUGAACCAGAGAAACACACGUUGUGGUAUAUUACCUGGUA [G1C A11C]	0.0386
CUCCUCUUUCACGUGCGCGUGAAAGAGAGAAGUGAACCAGAGAAACACACGUUGUGGUCUAUUACCUGGUA [G1C A59C]	0.113
CUCCUCUUUCACGUGCGCGUGAAAGAGUGAAGUGAACCAGAGAAACACACGUUGUGGUAUAUUACCUGGUA [G1C A28U]	0.247
CUCCUCUUUCACGUGCGCGUGAAAGAGAGAAGUGAACCAGAGAAACACACGUGGUGGUAUAUUACCUGGUA [G1C U53G]	0.046
